Source: the MegaScale stability set (Tsuboyama et al. 2023)

B1: HEEH_KT_rd6_3632 (parent)
chain: DAEELIELVERALKEGREIILLGVRITSEEAGKWFIEWIRRFL

Variants of: B1
Assay: folding stability dG (cDNA display proteolysis); higher = more stable
Conditions: PBS, room temperature

| Variant | folding stability dG [kJ/mol] |
| --- | --- |
| G23Y | 16.4 |
| G23K | 14.8 |
| G23R | 14.8 |
| G23A | 15.4 |
| G23E | 14.3 |
| G23P | 13.7 |
| G23C | 16 |
| G23M | 16.4 |
| G23D | 14.1 |
| G23N | 13.9 |
| G23L | 16.8 |
| G23V | 16.3 |
| G23T | 15.2 |
| G23Q | 15.1 |
| G23I | 16.2 |
| G23S | 14.9 |
| G23F | 16.4 |
| G23H | 15.1 |
| G23W | 17.2 |
| K14L | 15.8 |
| K14Y | 13.9 |
| K14I | 15 |
| K14V | 14.6 |
| K14R | 16.2 |

| Variant | folding stability dG [kJ/mol] |
| --- | --- |
| K14Q | 14.9 |
| K14S | 15.2 |
| K14W | 14.7 |
| K14M | 14.6 |
| K14T | 14.3 |
| K14H | 14.6 |
| K14D | 13.6 |
| K14N | 14.7 |
| K14A | 15.6 |
| K14E | 14.8 |
| K14P | 13.7 |
| K14G | 14.6 |
| K14F | 14.2 |
| L21M | 14.1 |
| L21W | 13.9 |
| L21E | 12.8 |
| L21F | 14.6 |
| L21N | 12.6 |
| L21T | 11.6 |
| L21R | 13.1 |
| L21Q | 12.3 |
| L21Y | 13.7 |
| L21A | 14.1 |
| L21S | 13 |

| Variant | folding stability dG [kJ/mol] |
| --- | --- |
| L21K | 12.5 |
| L21I | 16 |
| L21V | 16.3 |
| L21H | 12.2 |
| L21G | 11.8 |
| L21D | 11.3 |
| L21P | 10.9 |
| V24N | 12.5 |
| V24L | 14.4 |
| V24D | 11.3 |
| V24Y | 14.8 |
| V24Q | 13.1 |
| V24H | 14.3 |
| V24W | 15.7 |
| V24S | 12 |
| V24F | 16.3 |
| V24T | 13.6 |
| V24P | 12.7 |
| V24A | 13.2 |
| V24I | 16.7 |
| V24K | 12.8 |
| V24M | 14.4 |
| V24R | 12.6 |
| V24G | 13.5 |

| Variant | folding stability dG [kJ/mol] |
| --- | --- |
| V24E | 12.1 |
| S28D | 15.2 |
| S28V | 15 |
| S28R | 14.4 |
| S28H | 14 |
| S28M | 13.9 |
| S28P | 14.7 |
| S28Y | 14.5 |
| S28K | 13.3 |
| S28A | 14.7 |
| S28N | 15.8 |
| S28L | 15.6 |
| S28Q | 13.1 |
| S28F | 15.1 |
| S28E | 13.5 |
| S28T | 15.5 |
| S28G | 16 |
| S28I | 14.5 |
| S28W | 16.4 |
| S28C | 16 |
| L22Q | 13.1 |
| L22D | 11.1 |
| L22T | 12.9 |
| L22V | 13.8 |

| Variant | folding stability dG [kJ/mol] |
| --- | --- |
| L22R | 13.8 |
| L22C | 19.8 |
| L22A | 13.4 |
| L22P | 11.2 |
| L22K | 12.7 |
| L22M | 14.8 |
| L22H | 13.1 |
| L22F | 15.2 |
| L22Y | 13.5 |
| L22W | 17.1 |
| L22I | 14.9 |
| L22E | 11.3 |
| L22G | 12.6 |
| L22S | 13 |
| L22N | 12.8 |
| R17D | 12.5 |
| R17Q | 13.7 |
| R17V | 15.9 |
| R17H | 14.8 |
| R17A | 15.1 |
| R17F | 15.2 |
| R17G | 13.8 |
| R17E | 13.5 |
| R17Y | 16.1 |

| Variant | folding stability dG [kJ/mol] |
| --- | --- |
| R17M | 15.1 |
| R17K | 15 |
| R17T | 14.5 |
| R17S | 13.7 |
| R17I | 16.1 |
| R17L | 16.3 |
| R17W | 15.7 |
| R17P | 14.1 |
| R17N | 13.8 |
| R25K | 14.9 |
| R25W | 15.8 |
| R25E | 13.7 |
| R25Q | 14.3 |
| R25I | 15.3 |
| R25H | 15.6 |
| R25G | 13.9 |
| R25P | 13.1 |
| R25L | 16 |
| R25F | 15.8 |
| R25V | 15.2 |
| R25D | 13.5 |
| R25A | 15.4 |
| R25T | 14.9 |
| R25Y | 15.3 |

| Variant | folding stability dG [kJ/mol] |
| --- | --- |
| R25M | 15.3 |
| R25N | 14.4 |
| R25S | 14.7 |
| I26S | 12.8 |
| I26V | 13.8 |
| I26P | 13.3 |
| I26D | 12.4 |
| I26N | 13.4 |
| I26G | 12.1 |
| I26L | 14.1 |
| I26F | 14.4 |
| I26R | 14.1 |
| I26K | 13.6 |
| I26C | 18.2 |
| I26A | 14 |
| I26Y | 14 |
| I26H | 12.9 |
| I26T | 14.6 |
| I26Q | 13.4 |
| I26W | 14.2 |
| I26M | 13.9 |
| I26E | 13.9 |
| E15R | 14.1 |
| E15N | 14.9 |

| Variant | folding stability dG [kJ/mol] |
| --- | --- |
| E15L | 15 |
| E15M | 15.4 |
| E15V | 14.9 |
| E15Y | 15.4 |
| E15T | 14.6 |
| E15S | 15.6 |
| E15P | 13.4 |
| E15D | 15.5 |
| E15F | 15.2 |
| E15A | 15.5 |
| E15Q | 14.5 |
| E15K | 14.4 |
| E15G | 13.8 |
| E15W | 16.5 |
| E15I | 15.2 |
| E15H | 14.8 |
| A12Q | 13.3 |
| A12P | 12 |
| A12H | 14 |
| A12F | 14.3 |
| A12V | 14.9 |
| A12L | 15.7 |
| A12I | 15.6 |
| A12Y | 13.9 |

| Variant | folding stability dG [kJ/mol] |
| --- | --- |
| A12E | 12.9 |
| A12M | 14.9 |
| A12K | 12.9 |
| A12W | 15.7 |
| A12T | 13.8 |
| A12G | 13.5 |
| A12R | 13.3 |
| A12N | 13.1 |
| A12S | 13.9 |
| A12D | 11.9 |
| E18F | 16.2 |
| E18H | 16.1 |
| E18T | 16.5 |
| E18N | 15.4 |
| E18Q | 15.6 |
| E18L | 16 |
| E18Y | 15.8 |
| E18V | 16.4 |
| E18S | 16 |
| E18K | 14.8 |
| E18G | 15 |
| E18D | 14.4 |
| E18R | 15.9 |
| E18W | 15.8 |

| Variant | folding stability dG [kJ/mol] |
| --- | --- |
| E18A | 15.6 |
| E18I | 16.8 |
| E18M | 15.3 |
| E18P | 15.2 |
| R11T | 15.2 |
| R11V | 14.1 |
| R11Y | 13.2 |
| R11S | 13.9 |
| R11W | 15.3 |
| I19D | 11.1 |
| I19W | 14.4 |
| I19Q | 12.2 |
| I19T | 12.4 |
| I19M | 13.5 |
| I19R | 11.7 |
| I19E | 11 |
| I19K | 12.3 |
| I19L | 14.9 |
| I19V | 14.2 |
| I19F | 14.3 |
| I19N | 12 |
| I19S | 11.5 |
| I19Y | 13.5 |
| I19H | 12.5 |

| Variant | folding stability dG [kJ/mol] |
| --- | --- |
| I19G | 12.4 |
| I19A | 13.3 |
| I19C | 19 |
| I19P | 11.5 |
| G16H | 15 |
| G16T | 14.1 |
| G16R | 14.4 |
| G16M | 17.1 |
| G16S | 14.6 |
| G16Q | 14.3 |
| G16D | 12.8 |
| G16N | 15 |
| G16F | 16.6 |
| G16A | 16.1 |
| G16L | 18.1 |
| G16Y | 15.4 |
| G16C | 18.1 |
| G16E | 13 |
| G16P | 13.6 |
| G16I | 17.8 |
| G16V | 15.7 |
| G16K | 14.8 |
| G16W | 16.8 |
| L13N | 12.1 |

| Variant | folding stability dG [kJ/mol] |
| --- | --- |
| L13H | 12.5 |
| L13C | 20.8 |
| L13F | 14.3 |
| L13I | 16.2 |
| L13Y | 13.7 |
| L13Q | 12.3 |
| L13V | 14.8 |
| L13S | 12.9 |
| L13P | 12 |
| L13T | 13.6 |
| L13A | 13.1 |
| L13W | 14.4 |
| L13R | 13 |
| L13E | 12.4 |
| L13D | 12.4 |
| L13G | 12.4 |
| L13K | 12.8 |
| L13M | 15.4 |
| I20V | 15.3 |
| I20Y | 13.7 |
| I20D | 11.9 |
| I20L | 14 |
| I20Q | 13 |
| I20P | 11.1 |

| Variant | folding stability dG [kJ/mol] |
| --- | --- |
| I20G | 11.3 |
| I20H | 13.3 |
| I20S | 13.3 |
| I20M | 13.6 |
| I20T | 15.6 |
| I20A | 12.3 |
| I20N | 12.9 |
| I20K | 12.6 |
| I20E | 13.9 |
| I20W | 14.2 |
| I20F | 13.9 |
| I20R | 13.1 |
| E29L | 16.4 |
| E29H | 15.4 |
| E29Q | 16.6 |
| E29F | 16.2 |
| E29V | 15.9 |
| E29T | 16 |
| E29N | 15.9 |
| E29S | 15.5 |
| E29A | 16.3 |
| E29K | 16 |
| E29P | 17 |
| E29I | 16.5 |

| Variant | folding stability dG [kJ/mol] |
| --- | --- |
| E29M | 16.4 |
| E29D | 15.4 |
| E29G | 15.2 |
| E29R | 15.5 |
| T27M | 16.3 |
| T27I | 16.3 |
| T27F | 16.9 |
| T27W | 16.5 |
| T27G | 15.4 |
| T27S | 15.3 |
| T27L | 16.7 |
| T27H | 15.9 |
| T27R | 14.7 |
| T27D | 17 |
| T27K | 15 |
| T27A | 16.5 |
| T27Y | 15.6 |
| T27N | 16.7 |
| T27P | 13.3 |
| T27V | 16.3 |
| T27E | 14.4 |
| T27Q | 14.4 |
